{"source": "paper PMC5472591", "about": "“Mechanical stability of talin rod controls cell migration and substrate sensing” (Scientific Reports, 2017)", "proteins": {"B1": {"name": "talin-1 rod R3 subdomain fragment (amino acids 795-911) 4S mutant, His6-tagged (domain or fragment, mouse)", "chain": "SSSGPSASGTGAGRYDQATDTSLTVTENSFSSMGDAGEMVRQARILAQATSDLVNAIKADAEGESDLENSRKLLSAAKILADATAKMVEAAKGAAAHPDSEEQQQRSREAAEGSRMATNAAAQNAIKK", "notes": "11 residue linker between the N-terminal His6-tag and the talin fragment; talin-1, mouse, R3 subdomain, residues 795-911, with all four destabilizing point mutations; not shown: His6, N-terminal, kept"}}, "molecular_target": "the molecule itself", "test": "SEC-MALS; SEC on Superdex 200 10/300 GL with inline right angle / static light scattering detector; 200 ug protein injected; 50 mM NaH3PO4, 150 mM NaCl pH 7.2; 0.5 ml/min; 20 °C; detector calibrated with the monomeric peak of BSA"}
{"protein": "B1", "values": [{"measurement": "stoichiometry N", "value": 2}]}
